Source: PMC9677509 (Biochemistry, 2017)
Positions count from the first letter of the chain named. Numbers in names are those of the source.

B1: human FLAG-tagged wild type histidyl-tRNA synthetase (HARS) (enzyme, UniProt P12081 1-509, looked up)
chain: MAERAALEELVKLQGERVRGLKQQKASAELIEEEVAKLLKLKAQLGPDESKQKFVLKTPKGTRDYSPRQMAVREKVFDVIIRCFKRHGAEVIDTPVFELKETLMGKYGEDSKLIYDLKDQGGELLSLRYDLTVPFARYLAMNKLTNIKRYHIAKVYRRDNPAMTRGRYREFYQCDFDIAGNFDPMIPDAECLKIMCEILSSLQIGDFLVKVNDRRILDGMFAICGVSDSKFRTICSSVDKLDKVSWEEVKNEMVGEKGLAPEVADRIGDYVQQHGGVSLVEQLLQDPKLSQNKQALEGLGDLKLLFEYLTLFGIDDKISFDLSLARGLDYYTGVIYEAVLLQTPAQAGEEPLGVGSVAAGGRYDGLVGMFDPKGRKVPCVGLSIGVERIFSIVEQRLEALEEKIRTTETQVLVASAQKKLLEERLKLVSELWDAGIKAELLYKKNPKLLNQLQYCEEAGIPLVAIIGEQELKDGVIKLRSVTSREEVDVRREDLVEEIKRRTGQPLCIC
B2: human FLAG-tagged Y454S histidyl-tRNA synthetase (HARS) (enzyme, UniProt P12081 1-509, looked up)
chain: B1 chain with Y454S

How the values were obtained:
[1] = target: temperature sensitive HARS with the R362H substitution (UniProt P12081); assay: AUC
AUC = target: the molecule itself; assay: AUC

| Molecule | stoichiometry N [1] | stoichiometry N (AUC) |
| --- | --- | --- |
| temperature sensitive HARS with the R362H substitution (from UniProt P12081 1-509) (enzyme) | 2 |  |
| B1 |  | 2 |
| B2 |  | 2 |
